Measured values reported in patent US20170226215A1 (SORRENTO THERAPEUTICS, published 2017).

B1: anti-CD137 antibody MB3 (antibody, V domains shown)
VH: QMQLVQSGAEVKKPGASVKVSCKASGYQMRGYYMHWVRQAPGQGLEWMGWINPNSGGTNYAQKFQGRVTITRDTSASTAYMELSSLRSEDTAVYYCAREGEAVGLDLDYWGQGTLVTVSS
VL: SYELTQPPSVSVAPGKTARITCGGNNIGSKSVHWYQQKPGQAPVLVIYYDSDRPSGIPERFSGSNSGNTATLTISRVEAGDEADYYCQVWDSSSVVFGGGTQLTVL
notes: IgG class, variant of D6
B2: anti-CD137 antibody MSC8 (antibody, V domains shown)
VH: QMQLVQSGAEVKKPGASVKVSCKASGYNFGGYYMHWVRQAPGQGLEWMGWVNPKSGGTNYAQKFQGRVTITRDTSASTAYMELSSLRSEDTAVYYCAREGEAVGLDLDYWGQGTLVTVSS
VL: SYELTQPPSVSVAPGKTARITCGGNNIGSKSVHWYQQKPGQAPVLVIYYDSDRPSGIPERFSGSNSGNTATLTISRVEAGDEADYYCQVWDSSSVVFGGGTQLTVL
notes: IgG class, variant of D6
B3: anti-CD137 antibody MB12 (antibody, V domains shown)
VH: QMQLVQSGAEVKKPGASVKVSCKASGYSLEGYYMHWVRQAPGQGLEWMGWINPNSGGTNYAQKFQGRVTITRDTSASTAYMELSSLRSEDTAVYYCAREGEAVGLDLDYWGQGTLVTVSS
VL: SYELTQPPSVSVAPGKTARITCGGNNIGSKSVHWYQQKPGQAPVLVIYYDSDRPSGIPERFSGSNSGNTATLTISRVEAGDEADYYCQVWDSSSVVFGGGTQLTVL
notes: IgG class, variant of D6

The binders below were run against T1, recombinant human CD137/Fc (human, UniProt Q07011 24-186) (assay: ELISA, plate coated with recombinant human CD137/Fc at 2 µg/mL, antibody at about 1 µg/mL (single concentration), HRP anti-human lambda, OD 450 nm).
T1 construct: Coated on the ELISA plate at 2 µg/mL; not shown: Fc part
Experimental: A Maxisorp plate was coated with recombinant human CD137/Fc or mouse CD137/Fc at 2 μg/mL at 4° C., overnight. The plate was blocked for 1 hour at room temperature, washed 3 times with PBS-Tween (PBST), then anti-CD137 antibodies (˜1 μg/mL) diluted in casein were added and incubated for 30 min with shaking. The plate was washed 3 times with PBST, horseradish peroxidase (HRP)-conjugated mouse anti-human Lambda (1:1000 in casein) was added, then 3,3′,5,5′-Tetramethylbenzidine (TMB) was added as substrate and developed about 5 min. 2M H₂SO₄ was used to stop the reaction and the OD was read at 450 nm.

Binding result, binds:
B1
B2
B3
